Reference: paper PMC9938351

Assays:
Assay in all cases: ITC
[1] = target: SARS-CoV-2 Ubl1 E26A (SARS-CoV-2)
[2] = target: SARS-CoV-2 Ubl1 E95A (SARS-CoV-2)
[3] = target: SARS-CoV-2 Ubl1 Y103A (SARS-CoV-2)
[4] = target: SARS-CoV-2 Ubl1 D110A (SARS-CoV-2)
[5] = target: SARS-CoV-2 ubiquitin-like domain 1 (Ubl1) of Nsp3 (residues 1–111) (SARS-CoV-2)

Substance	Kd [1] [µM]	dH [1] [kJ/mol]	stoichiometry N [1]	Kd [2] [µM]	dH [2] [kJ/mol]	stoichiometry N [2]	Kd [3] [µM]	dH [3] [kJ/mol]	stoichiometry N [3]	Kd [4] [µM]	dH [4] [kJ/mol]	stoichiometry N [4]	Kd [5] [µM]	dH [5] [kJ/mol]	stoichiometry N [5]
SARS-CoV-2 N protein N-terminal domain (NTD, residues 47–174) (from UniProt P0DTC9 47-174) (domain or fragment)	78.6	-14.1	0.74	53.1	-5.2	0.75	57.7	-3.1	0.57	50.8	-11.1	0.64	17	-11.3	0.73
SARS-CoV-2 N-NTD R92A (from UniProt P0DTC9 47-174) (domain or fragment)	–	–	–	–	–	–	–	–	–	–	–	–	55.7	-13.3	0.58
